These results are taken from US20130171061A1.

For test [1], the target named is Human transferrin receptor on K562 cells (human) (UniProt P02786). Briefly: FACS of K562 cells with BSA-coupled fluorescent beads (negative control), 4 C, 1 h.
Test [2] shares this target. Briefly: FACS of K562 cells with BSA-coupled fluorescent beads (negative control), 37 C, 1 h.
The target is the same in test [3]. The test can be described thus: FACS of K562 cells with BSA-coupled fluorescent beads (negative control), 37 C with sodium azide, 1 h.

Human transferrin receptor on K562 cells (human), sequence (P02786 whole entry): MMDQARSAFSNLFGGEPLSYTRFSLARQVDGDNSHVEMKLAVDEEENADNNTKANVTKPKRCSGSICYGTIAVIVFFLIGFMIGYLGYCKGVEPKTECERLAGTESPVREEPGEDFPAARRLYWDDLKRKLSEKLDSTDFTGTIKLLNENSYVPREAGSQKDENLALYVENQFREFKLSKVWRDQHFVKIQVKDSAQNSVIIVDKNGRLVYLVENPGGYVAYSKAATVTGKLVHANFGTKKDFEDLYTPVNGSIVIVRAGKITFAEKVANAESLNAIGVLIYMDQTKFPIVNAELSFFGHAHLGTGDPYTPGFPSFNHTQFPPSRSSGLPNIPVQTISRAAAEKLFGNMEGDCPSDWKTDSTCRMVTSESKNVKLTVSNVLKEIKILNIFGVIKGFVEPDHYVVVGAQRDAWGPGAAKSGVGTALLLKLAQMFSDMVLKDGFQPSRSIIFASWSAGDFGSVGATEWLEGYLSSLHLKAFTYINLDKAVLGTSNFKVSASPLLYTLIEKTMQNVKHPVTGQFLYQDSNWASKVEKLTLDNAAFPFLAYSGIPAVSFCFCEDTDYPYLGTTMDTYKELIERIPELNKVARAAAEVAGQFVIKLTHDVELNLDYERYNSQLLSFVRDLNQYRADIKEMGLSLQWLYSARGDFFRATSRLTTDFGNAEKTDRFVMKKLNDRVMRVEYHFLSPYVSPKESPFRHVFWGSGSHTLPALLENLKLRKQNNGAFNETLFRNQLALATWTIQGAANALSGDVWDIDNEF

Regarding “BSA (negative control on fluorescent beads) (from UniProt P02769 25-607)”, the Mean fluorescence intensity (MFI) was 1.45 MFI in test [1], 9.07 MFI in test [2] and 3.49 MFI in test [3].
